# Data taken from patent US20080241172A1 (CENTRE NATIONAL DE LA RECHERCHE SCIENTIFIQUE, published 2008).
# Changes are numbered by the printed parent chain. In names and notes the source's numbering stands.
# B1: Torpedo AChET mutant S19C (containing two cysteines at positions 19 and 37) (enzyme)
# chain: DDDSELLVNTKSGKVMRTRIPVLSSHISAFLGIPFAEPPVGNMRFRRPEPKKPWSGVWNASTYPNNCQQYVDEQFPGFPGSEMWNPNREMSEDCLYLNIWVPSPRPKSATVMLWIYGGGFYSGSSTLDVYNGKYLAYTEEVVLVSLSYRVGAFGFLALHGSQEAPGNMGLLDQRMALQWVHDNIQFFGGDPKTVTLFGESAGRASVGMHILSPGSRDLFRRAILQSGSPNCPWASVSVAEGRRRAVELRRNLNCNLNSDEDLIQCLREKKPQELIDVEWNVLPFDSIFRFSFVPVIDGEFFPTSLESMLNAGNFKKTQILLGVNKDEGSFFLLYGAPGFSKDSESKISREDFMSGVKLSVPHANDLGLDAVTLQYTDWMDDNNGIKNRDGLDDIVGDHNVICPLMHFVNKYTKFGNGTYLYFFNHRASNLVWPEWMGVIHGYEIEFVFGLPLVKELNYTAEEEALSRRIMHYWATFAKTGNPNEPHSQESKWPLFTTKEQKFIDLNTEPIKVHQRLRVQMCVFWNQFLPKLLNATETIDEAERQWKTEFHRWSCYMMHWKNQFDQYSRHENCAEL
# notes: It may include a signal peptide; also called mutated torpedo AChE
# B2: Torpedo AChET mutant with residue 3 of the t peptide replaced by a cysteine, with mutation of C37 (C37S) (enzyme)
# chain: B1 chain with I538C, C554S, C572S
# notes: also called 13 (printed; read as I3) with C37S
# B3: wild type Torpedo AChET (enzyme)
# chain: B1 chain with C554S
# notes: The wild type is built by undoing that change; Expressed in transfected COS cells; cell extracts and medium were analysed; also called wild type AChET subunits
# B4: Torpedo AChET mutant T12C (enzyme)
# chain: B1 chain with T547C, C554S
# B5: Torpedo AChET mutant with M21 of the t peptide replaced by a cysteine (enzyme)
# chain: B1 chain with C554S, M556C
# B6: Torpedo AChET mutant with M22 of the t peptide replaced by a cysteine, with mutation of C37 (C37S) (enzyme)
# chain: B1 chain with C554S, M557C, C572S
# notes: also called M22 with C37S
# B7: Torpedo AChET mutant with H34 of the t peptide replaced by a cysteine (enzyme)
# chain: B1 chain with C554S, H569C
# B8: Torpedo AChET mutant with A6 of the t peptide replaced by a cysteine (enzyme)
# chain: B1 chain with A541C, C554S
# B9: Torpedo AChET mutant S19C/C37S (enzyme)
# chain: B1 chain with C572S
# notes: also called S19 with C37S
# B10: Torpedo AChET mutant with M21 of the t peptide replaced by a cysteine, with mutation of C37 (C37S) (enzyme)
# chain: B1 chain with C554S, M556C, C572S
# notes: also called M21 with C37S
# B11: Torpedo AChET mutant with residue 3 of the t peptide replaced by a cysteine (enzyme)
# chain: B1 chain with I538C, C554S
# notes: also called 13 (printed; read as I3)
# B12: Torpedo AChET mutant with M22 of the t peptide replaced by a cysteine (enzyme)
# chain: B1 chain with C554S, M557C
# B13: Torpedo AChET mutant with T12 of the t peptide replaced by a cysteine, with mutation of C37 (C37S) (enzyme)
# chain: B1 chain with T547C, C554S, C572S
# notes: also called T12 with C37S
# B14: Torpedo AChET mutant with A6 of the t peptide replaced by a cysteine, with mutation of C37 (C37S) (enzyme)
# chain: B1 chain with A541C, C554S, C572S
# notes: also called A6 with C37S
# B15: Torpedo AChET mutant with H34 of the t peptide replaced by a cysteine, with mutation of C37 (C37S) (enzyme)
# chain: B1 chain with C554S, H569C, C572S
# notes: also called H34 with C37S
# B16: Torpedo AChET mutant C37S (enzyme)
# chain: B1 chain with C554S, C572S
# Assays:
# [1] = target: the molecule itself; assay: homodimers from transfected COS cells; sedimentation in sucrose gradients
# Procedure: (§1) COS cells were transfected by the DEAE-dextran method, as previously described (Bon et al., 1997), using 4 μg of DNA encoding the AChE catalytic subunit and 4 μg of DNA encoding QN or PRAD-deleted QN, per 100 mm dish. Because Torpedo AChE folds into its active conformation at 27° C., but not at 37° C., the cells were incubated for two days at 37° C. after transfection, then transferred to 27° C. and maintained at this temperature for 3-4 days, in a medium containing 10% Nuserum (Inotech, Dottikon, Switzerland), which had been pretreated with 10⁻⁶ M soman to inactivate serum choline sterases.
# (§2) Centrifugation was performed in 5-20% sucrose gradients (50 mM Tris-HCl, pH 7.5, 50 mM MgCl₂, either in the presence of 0.2% Brij-97 or in the presence of 0.2% Triton X-100) in a Beckman SW41 rotor, at 36,000 rpm, for 18 h at 6° C. The gradients contained Escherichia coli β-galactosidase (16 S) and alkaline phosphatase (6.1 S) as internal sedimentation standards (Bon et al., 1997). Amphiphilic molecules generally sediment faster in the presence of Triton X100 than of Brij-97, providing an indication on their amphiphilic character.
# [2] = target: the molecule itself; assay: homo-oligomers from transfected COS cells; sedimentation in sucrose gradients
# Procedure: as §1, §2
# [3] = target: the molecule itself; assay: homo-oligomers from transfected COS cells; sedimentation in sucrose gradients (tetramers still formed, dimers not)
# Procedure: as §1, §2
Protein,binding result [1],further results
B1,binds,
B2,binds,
B3,,binding result [2]: binds
B4,,binding result [2]: binds
B5,binds,
B6,binds,
B7,binds,
B8,binds,
B9,binds,
B10,binds,
B11,binds,
B12,binds,
B13,binds,
B14,binds,
B15,binds,
B16,,binding result [3]: binds
